Fewer inactive variants are shown than the library holds.
B1: TPR 5TU (parent)
chain: GGAUCUUCUCGAUCUAACAAAAAAGACAAAUCUGCCACAAAGCUUGAGAGCAUCUUCGGAUGCAGAGGCGGCAGCCUUCGGUGGCGCGAUAGCGCCAACGUUCUCAACUAUGACACGCAAAACGCGUGCUCCGUUGAAUGGAGUUUAUCAUG

Variants of: B1
Experiment: polymerase ribozyme fitness, log enrichment relative to wild type (log ratio); higher = more active; in vitro selection for triplet polymerase activity
Procedure, shortened: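 To select mutant libraries of each subunit of a heterodimeric triplet polymerase ribozyme, built by PCR and transcribed, each was annealed with a biotinylated primer, partner subunit and triplets, then incubated frozen at −7 °C. Extended constructs were gel-excised, captured on streptavidin beads and amplified by RT-PCR, in one round carried out in triplicate. Illumina sequencing of input and output libraries kept genotypes with ≥10 input reads and ≥1 read per output. Fitness is the base-2 logarithm of genotype enrichment relative to wild-type enrichment, from inverse-variance-weighted replicate averages.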

Row | Variant | polymerase ribozyme fitness (log ratio)
1 | GGAUCUUCUCGAUCUAACAAAAAAGACAAAUCUCCCACAAAGCUUGAGAGCAUCUUCGGAGGCAGAGGCGGCAGCCUUCGGUGGCGCGAUAGCGCCAACGUUCUCAACUAUGACACGCAAAACGCGUGCUCCGUUGAAUGGAGUUUAUCGUG | ≤ -4.2
2 | GGAUCUUCUCGAUCUAACAAAGAAGACAAAUCUGCCACAAGGCUUGAGAGAAUCUUCGGAUGCAGAGGCGGCAGCAUUCGGUGGCGCGAUAGCUCCUACGUUCUCAACUAUGACACGCAAAACGCGUGCUCCGUUGAAUGAAGUUUAUCAUG | ≤ -4.2
3 | GGAUCUUCUCGAUGUAACAAAAAAGACAAAUCUGCCACAAAGCUUGAGAGCAUCUUCGGAUGCAGAGGCGGCAGCCUUCGGUGGCGCGAUACCGCCAACGUUCUCAACUAUGACACGCAAAACGCGUGCUCCGUUGAAUGGAGUUUAUCAUG | -2.66
4 | GGAUCUUCUCGAUCUAACAAAAAAGACAAAUCUGCCACAAAGCUUGAGAUCAUCUUCGGAUGCAGAGGCGGCAGCCUUCGGUGGCGCGAUAGCGUCAACGUUCUCAACUAUGACACGCAAAACGCGUGCUCCGUUGAAUGGAGUUUAUCAUG | -0.241
5 | GGAUUUUCUCGAUCUAACAAAAAAGACAAAUCUGCCACAAAGCUAGAGAGCAUCUUCGGAUGCAGAGGCGGCAGCCUUCGGUGGCGCGAUAGCGCCAACGUUCUCAACUAUGACACGCAAAACGCGUGCUCCGUUGAAUGGAGUUUAUCAUG | -2.1
6 | GGAUCUUCUCGAUCUAACAAAAAAGAAAAAUCUGCCACAAAGCUUGAGAGCGUCUUCGGAUGCAGAGGCGGCAGCCUUCGGUGGCGCGAUAGCGACAACGUUCUCAACUAUGACACGCAAAACGCGUGGUCCGUUGAAUUGUGUUUAUCAUG | ≤ -4.2
7 | GGAUCUUCUCGAUCUAACAAAAAAGACAAAUCUGCCACAAAGCUUGAGAGCAUCUUCGCAUGCAGAGGCGGCAGCCUUCGGUGGCGCGAUAGCGCCAUCGUUCUCAACUAUGACACGCAAAACGCGUGCUCCGUUGAAUGGAGUUUAUCAUG | 0.166
8 | GGAUCUUCUCGAUCUAACAUAAAAGACAAAUCUGCCACAAAGCUUGAGAGCAUCUUCGGAUGCAGAGGCGGCGGCCUUCGGUGGCGCGAUAGCGCCAACGUUCGCAACUAUGACGCGCAAAACGCGUGCUCCGUUGAAUGGAGUUUAUCAUG | ≤ -4.2
9 | GGAUCUUCUCGAUCUAACAAAAAAGACAAAUCUGCCACAAAGCUUGAGAGCAUCUUCGGAUGCAGAGGCGGCAGCCUUCGGUGGCGCGAUAGCACCAACGUUCUCAACUAUGACACGCAAAACGCGUGCUCCGUUGAAUAGAGUUUAUCAUG | -3.51
10 | GGAUCUUCUCGAUCUUACAAAAAAGACAAAUCUGCCACAAAGCUUGAGAGCAUCUUCGGAUGCAGAGGCGGCAGCCUUCGGUGGCGCGAUAGAGCCAACGUUCUCAACUAUGACACGCAAAACGCGUGCUCCGUUGAAUGGAGUUUAUCAUG | -3.85
11 | GGAUCUUCUCGAUCUAACAAAAAAGACAAAUCUGCCACAAAGCUUGAGAGCAUCUUCGGAUGCAGAGGCGGCAGUCUUCGGUGGCGCGAUAGCCCCAACGUUCUCAACUAUGACACGCAAAACGCGUGCUCCGUUGAAUGGAGUUUAUCAUG | 0.488
12 | GGGUCUUCUCGAUCUAUCAAAAAAGACAAAUCUACCACAAAGCUUGAGAGCAUCUUCGGAUGCAGAGGCGGCAGCCUUCGGUGGCGCGAUAGCGCCAACGUUCUCAACUAUGACACGGAAAACGCGUGCUCCGUUGAAUGGAGUUAAUAAUG | ≤ -4.2
13 | GGAUCUUCUCGAUCUAACAAAAAAGACAAAUCUGCCACAAAGCUUGAGAGCAUCUUCGAAUGCAGAGGCGGCAGCGUGCGGUGGUGCAAUACCGCCAACGUUCUCAACUAUGACACGCAAAACGCGUGCUCCGUUGAAUGGAGUUUAUCAUG | ≤ -4.2
14 | GGAUCUUCUCGAUCUAACAAAAAAGACAAAUCUGCCACAAAGCUUGAGAGCAUCUUCGGAUGCAGAGGCGGCUGCCUUCGGUGGCGCGAUAGCGCCAACGUUCUCAACUAUGACACGCAAAACGCGUGCUCCGUUGAAUGGAGUUUACCAUC | ≤ -4.2
15 | GGAUCUUCUUGAUCUAUCAAAAAAGACAAAUCUGCCACAAAGCUUGAGAGCAUCUUCGGAUGCAGAGGCGGCAGCCUUCGGUGGCGCGAUAGCGCCAACGUUCUCAACUAUGACACGCAAAACGCGUGCUCCGUUGAAUGGAGUUUAUCAUG | -3.22
16 | GGAUCUUCUCGAGCUAACAAAAAAGACUAAUCUGCCCCAAGGCUUGAGAGCAUCUUCGGAUGCAGAGGCGGCAGCCUUCGGUGGCGCGAUAGCGCCAAUGUUCUCAACUAUGACACGCAAAACGCGUGAUCCGCUGAAUGGAGUUUAUCCUG | ≤ -4.2
17 | GGAUCUUCUAGAUCGAACAAAAAAGACAAAUCUGCCACAAAGCUUGAGAGCAUCUUUGGAUGCAGAGGCGGCAGCCUUCGGUCGCGCGAUAGCGCCAACGUUCUCAACUAUGACACGCAAAACGCGUGCUCCGUUGAAUGGAGUUUAUCAUG | ≤ -4.2
18 | GGAUCUUCUCGAUCUAACAAAAAAGACAAAUCUGCCACAAAGCUUGAGAGCAUCUUCGGAUGCAGAGGCGGCGGCCUUCGGUGGCGCGAUAGUGCCAACGUUCUCAACUAUGACACGCAAAACGCGUGCUCCGUUGAAUGGAGUUUAUCAUG | -1.28
19 | GGAUCUUCUCGAUCUAACAAAAAAGACAAAUCUGACACAAAGCUUGAGAGCAUCUUAGGAUGCAGAGGCGGCAGCCUUCGGUUGCGCGAUAGCCCCAACGUUCUCAACUAUGACACGCAAAACGCGUGCUCCGUUGAAUGGAGUUUAUCAUG | ≤ -4.2

— the RNAGym collection of RNA variant scans (doi:10.1073/pnas.2313332121)
